Values of other authors as cited in publication PMC11962798.

Molecular target: Spike protein RBD (SARS-CoV-2) (UniProt P0DTC2)

Substance: Bamlanivimab
- Kd: 1.5 nM
